The text below walks through data of US20130158238A1 (THERACLONE SCIENCES, published 2013).

Targets include NM10; NM11; NM16; NM9.
Holding throughout (assay): ELISA, peptide 2 µg/mL, mAb 5 µg/mL

B1: 8i10 (antibody, V domains shown)
VH: QVQLQESGPGLVKPSETLSLTCTVSGSSISNYYWSWIRQSPGKGLEWIGFIYYGGNTKYNPSLKSRVTISQDTSKSQVSLTMSSVTAAESAVYFCARASCSGGYCILDYWGQGTLVTVS
VL: DIQMTQSPSSLSASVGDRVTITCRASQNIYKYLNWYQQRPGKAPKGLISAASGLQSGVPSRFSGSGSGTDFTLTITSLQPEDFATYYCQQSYSPPLTFGGGTRVEIK
Take B1: the binding activity (ELISA A450) with NM10 was 0.1; with NM11, 0.13; in the experiment with NM16, 0.29; in the experiment with NM9, 0.12.

B2: 23K12 (antibody, V domains shown)
VH: EVQLVESGGGLVQPGGSLRISCAASGFTVSSNYMSWVRQAPGKGLEWVSVIYSGGSTYYADSVKGRFSFSRDNSKNTVFLQMNSLRAEDTAVYYCARCLSRMRGYGLDVWGQGTTVTVS
VL: DIQMTQSPSSLSASVGDRVTITCRTSQSISSYLNWYQQKPGKAPKLLIYAASSLQSGVPSRFSGSGSGTDFTLTISGLQPEDFATYYCQQSYSMPAFGQGTKLEIK
In the case of B2, the binding activity (ELISA A450) stood at 0.24 with NM10, 0.3 in the experiment with NM11, 0.62 with NM16 and 0.3 with NM9.
